Five molecules from article PMC6112833, “Combinatorial engineering of N-TIMP2 variants that selectively inhibit MMP9 and MMP14 function in the cell” (Oncotarget, 2018) can be followed below.

Experiment [1] deals with T1, MMP1 catalytic domain (MMP1CAT) (UniProt P03956 100-269).
T1 construct: catalytic domain of MMP1 (collagenase); source: purified as previously described [66, 91]
T1 sequence (looked up): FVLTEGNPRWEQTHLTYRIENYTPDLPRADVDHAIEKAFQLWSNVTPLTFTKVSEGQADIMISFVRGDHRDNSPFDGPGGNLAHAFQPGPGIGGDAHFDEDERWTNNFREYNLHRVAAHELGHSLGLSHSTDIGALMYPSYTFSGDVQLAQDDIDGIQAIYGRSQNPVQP
The experiment is described as follows: enzyme inhibition assay (fluorogenic substrate, fit to Morrison's tight binding equation); 0.0075 nM MMP14CAT or MMP9CAT (MMP1CAT, MMP10CAT: concentration not stated) incubated with 0.4-25 nM or 1.5-500 nM inhibitor for 1 h at 37 C in TCNB buffer (50 mM Tris-HCl pH 7.5, 100 mM NaCl, 5 mM CaCl2, 0.05% Brij), then 15 uM Mca-Pro-Leu-Gly-Leu-Dpa-Ala-Arg-NH2; Ki from the apparent Ki; mean of three experiments. The following applies: both partners purified.

The target in experiment [2] is T2, MMP10 catalytic domain (MMP10CAT) (UniProt P09238 99-263).
T2 construct: catalytic domain of MMP10 (stromelysin); source: purified as previously described [66, 91]
The experiment is described as above. The note with it: both partners purified.

Experiment [3] deals with T3, MMP14 catalytic domain (MMP14CAT, residues 112-292) (human, UniProt P50281 112-292, conjugated to DyLight-488 for the yeast display sorting and flow cytometry).
T3 construct: human MMP14 catalytic domain, residues 112-292; In the functional rows the MMP14 of the cells (endogenous in U87MG, or pCMV MMP14 in MCF-7) is meant; source: E. coli BL-21 (DE3), pET3a, purified as previously described
The experiment is described as above. The note with it: both partners purified.

Experiment [4] addresses T4, MMP9 catalytic domain lacking the fibronectin-like domain (MMP9CAT, residues 107-215 and 391-443) (human, UniProt P14780 107-215; P14780 391-443, conjugated to DyLight-650 for the yeast display sorting and flow cytometry).
T4 construct: human MMP9 catalytic domain, first stretch, residues 107-215 (before the fibronectin-like domain, which is left out); human MMP9 catalytic domain, second stretch, residues 391-443 (after the fibronectin-like domain); In the functional rows the full-length MMP9 secreted by MCF-7-MMP9 cells is meant; source: gift from Irit Sagi (Weizmann Institute of Science), purified
T4 chain (looked up): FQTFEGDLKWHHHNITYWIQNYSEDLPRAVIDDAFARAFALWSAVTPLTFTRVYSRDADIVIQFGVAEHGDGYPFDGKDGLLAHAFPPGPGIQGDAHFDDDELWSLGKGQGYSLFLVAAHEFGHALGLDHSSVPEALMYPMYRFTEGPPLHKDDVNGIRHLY
The description is as above. The note with it: both partners purified.

Experiment [5] addresses T3, MMP14 catalytic domain (MMP14CAT, …). The experiment is described as follows: cell-based or functional assay.
In experiment [6] the target is T4, MMP9 catalytic domain lacking the …. In words: cell-based or functional assay.

Where a chain is given by its changes, count along the chain named.

T2 sequence (P09238 99-263): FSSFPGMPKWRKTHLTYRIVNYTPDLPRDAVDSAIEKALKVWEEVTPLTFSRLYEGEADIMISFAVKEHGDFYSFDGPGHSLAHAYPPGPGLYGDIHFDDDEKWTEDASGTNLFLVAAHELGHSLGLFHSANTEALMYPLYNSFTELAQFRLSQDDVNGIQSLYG

B1: N-TIMP2WT, wild type N-terminal domain of the tissue inhibitor of metalloproteinase-2, soluble form (domain or fragment, UniProt P16035 27-153, looked up)
chain: CSCSPVHPQQAFCNADVVIRAKAVSEKEVDSGNDIYGNPIKRIQYEIKQIKMFKGPEKDIEFIYTAPSSAVCGVSLDVGGKKEYLIAGKAEGDGKMHITLCDFIVPWDTLSTTQKKSLNHRYQMGCE
notes: limits worked out from the printed primers (forward primer encodes CSCSP, reverse primer ends at YQMGCE); also called wild-type N-TIMP-2; source: P. pastoris X33 (pPICZalphaA), secreted, purified (Ni-NTA, Superdex 75 SEC)
In the case of B1, the Ki in experiment [1] came to 0.7 ± 0.1 nM; in experiment [2], 3.5 ± 0.8 nM; in experiment [3], 5 ± 1 nM; in experiment [4] it was 0.5 ± 0.04 nM. Further, the “inhibition of MMP2 activation by MMP14 in U87MG cells (gelatin zymography of media, 100 nM inhibitor, 48 h)” value (“inhibition of MMP2 activation by MMP14” for short) in experiment [5] was found to be 45%. For the same molecule, the “inhibition of trans-well migration of MCF-7-MMP14 cells (100 nM inhibitor, 24 h)” value (“inhibition … (100 nM inhibitor, 24 h)” for short) in experiment [5] came to 30%. Besides, the “inhibition of the gelatin-degrading activity of MMP9 from MCF-7-MMP9 supernatant (gelatin zymography, gel incubated with 100 nM inhibitor)” value in experiment [6] is around 86%.

B2: N-TIMP2_(9_1), soluble form (designed binder)
chain: B1 chain with S4P, I35P, N38W, S68N, V71I, H97M, T99K
notes: limits worked out from the printed primers (forward primer encodes CSCP, reverse primer ends at YQMGCE); source: P. pastoris X33 (pPICZalphaA), secreted, purified (Ni-NTA, Superdex 75 SEC)
Turning to B2, the Ki is 240 ± 31 nM in experiment [3] and 0.78 ± 0.02 nM in experiment [4]. The “inhibition of the gelatin-degrading activity of MMP9 from MCF-7-MMP9 supernatant (gelatin zymography, gel incubated with 100 nM inhibitor)” value in experiment [6] was around 82%.

B3: N-TIMP2_(14_18), soluble form (designed binder)
chain: B1 chain with S4K, I35L, N38F, S68F, H97E
notes: limits worked out from the printed primers (forward primer encodes CSCK, reverse primer ends at YQMGCE); also called N-TMP2_(14_18); source: P. pastoris X33 (pPICZalphaA), secreted, purified (Ni-NTA, Superdex 75 SEC)
For B3, the Ki in experiment [3] amounted to 0.024 ± 0.005 nM. The Ki in experiment [4] came out at 1.25 ± 0.2 nM. In addition, in experiment [5], the “inhibition of MMP2 activation by MMP14” value came out at 50% and the “inhibition … (100 nM inhibitor, 24 h)” value is around 50%.

B4: N-TIMP2_(9_13), soluble form (designed binder)
chain: B1 chain with S4P, I35P, N38W, S68N, H97K, T99K
notes: as for B2
For the molecule B4, the Ki amounted to 18 ± 8 nM in experiment [1], 40 ± 14 nM in experiment [2], 832 ± 44 nM in experiment [3] and 1.2 ± 0.007 nM in experiment [4]. The “inhibition of the gelatin-degrading activity of MMP9 from MCF-7-MMP9 supernatant (gelatin zymography, gel incubated with 100 nM inhibitor)” value in experiment [6] was around 75%.

B5: N-TIMP2_(14_17), soluble form (designed binder)
chain: B1 chain with S4D, I35L, N38S, S68D, V71S, H97S, T99F
notes: limits worked out from the printed primers (forward primer encodes CSCD, reverse primer ends at YQMGCE); source: P. pastoris X33 (pPICZalphaA), secreted, purified (Ni-NTA, Superdex 75 SEC)
Regarding B5, the Ki in experiment [1] is 0.92 ± 0.15 nM; in experiment [2] it was 3.2 ± 0.4 nM; in experiment [3], 0.03 ± 0.003 nM; in experiment [4], 3.58 ± 0.5 nM. Besides, the “inhibition of MMP2 activation by MMP14” value in experiment [5] came to 45%. Besides, the “inhibition … (100 nM inhibitor, 24 h)” value in experiment [5] worked out at 38%.
